The Kd is the concentration at which binding is half-saturated. Usually koff stands for the first-order rate constant of dissociation. Usually IC50 stands for the concentration needed to halve the response being measured. The term kon denotes the second-order rate constant of association. Broadly, the EC50 is the concentration needed to bring the measured effect to its halfway point. Read a high EC50 as lower potency in that assay.

Experiment [1] has as its target IL-13Rα1 monomer (IL-13Rα1 extracellular domain) (human) (UniProt P78552). The experiment is described as follows: SPR, IL-13Rα1 immobilised.
In experiment [2] the target is IL-13Rα1 + IL-4R co-immobilised on one sensor chip surface (high affinity receptor) (human) (UniProt P78552). The experiment is described as follows: SPR, IL-13Rα1 and IL-4R co-immobilised, heterogeneous ligand model, component 2 (high affinity).
Sequence of IL-13Rα1 + IL-4R co-immobilised on one sensor chip surface (high affinity receptor) (human) (P24394 26-232): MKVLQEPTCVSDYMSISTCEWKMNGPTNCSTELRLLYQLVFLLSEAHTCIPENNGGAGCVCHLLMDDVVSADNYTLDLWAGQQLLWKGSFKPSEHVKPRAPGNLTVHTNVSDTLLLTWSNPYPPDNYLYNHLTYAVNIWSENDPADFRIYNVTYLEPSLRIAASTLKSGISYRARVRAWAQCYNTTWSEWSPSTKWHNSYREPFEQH
Experiment [3] addresses Cy5-IL-13Rα1 (Cy5 labeled IL-13Rα1) (human) (UniProt P78552). Description: TR-FRET assay 1, competition with 10 nM Eu-IL-13 for 10 nM Cy5-IL-13Rα1. (Time-resolved FRET reads energy transfer from a long-lived donor to a nearby acceptor.)
Experiment [4] addresses IL-13Rα1 + IL-4R co-immobilised on one sensor chip surface (high affinity receptor) (human) (UniProt P78552). Description: SPR, IL-13Rα1 and IL-4R co-immobilised, against IL-13Rα1 alone.
For experiment [5] the target is unchanged. Description: SPR, IL-13Rα1 and IL-4R co-immobilised, heterogeneous ligand model, component 1 (lower affinity). (In general: Surface plasmon resonance follows binding to a sensor surface in real time, without labels.)
Experiment [6] shares this target. The experiment is described as follows: SPR, IL-13Rα1 and IL-4R co-immobilised, heterogeneous ligand model, component 2 (high affinity); column head misprinted 'Kd 2 × 10^6'.
The target in experiment [7] is Cy5-IL-13Rα1 (Cy5 labeled IL-13Rα1) (human) (UniProt P78552). Description: TR-FRET assay 1, competition with Eu-IL-13 for Cy5-IL-13Rα1, Kd calculated from IC50.
Experiment [8] concerns the target IL-13Rα1 monomer (IL-13Rα1 extracellular domain) (human) (UniProt P78552). The experiment is described as follows: SPR, IL-13Rα1 immobilised, 1:1 model.
Experiment [9] concerns the target Cy5-IL-13Rα1 plus IL-4R (500 nM) in solution (human) (UniProt P78552). The experiment is described as follows: TR-FRET assay 1, competition with 10 nM Eu-IL-13, 10 nM Cy5-IL-13Rα1, 500 nM IL-4R.
Experiment [10] shares this target. Description: TR-FRET assay 1, competition with Eu-IL-13, with 500 nM IL-4R, Kd calculated from IC50.
For experiment [11], the target named is IL-13R110Q/IL-13Rα1 binary complex (human) (UniProt P35225). The experiment is described as follows: SPR, IL-13Rα1 immobilised, 8 nM IL-13R110Q in buffer, IL-4R injected, 1:1 model.
Sequence of IL-13R110Q/IL-13Rα1 binary complex (human) (P35225 35-146, one chain of several): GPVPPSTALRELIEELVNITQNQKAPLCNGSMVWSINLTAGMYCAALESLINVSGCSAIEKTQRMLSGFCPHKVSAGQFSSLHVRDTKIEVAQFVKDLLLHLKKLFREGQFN
Experiment [12] has the same target. The description is as above. The source holds these as a separate data set.
For experiment [13], the target named is T1, Eu-IL-13 (europium chelate labeled IL-13) (human, UniProt P35225 35-146, limits assumed, europium chelate (Eu) label, directly labeled; site not stated).
T1 construct: also called Eu-labeled IL-13
T1 sequence (P35225 other isoform, or with tags, fused parts or gaps limits assumed, form in doubt): as the sequence (P35225 35-146, one chain of several) above, with Q110R counted along it
Description: TR-FRET assay 1, direct: Cy5-IL-13Rα1 titrated into 10 nM Eu-IL-13, no IL-4R. The procedure:
(§1) All TR-FRET experiments were performed on a 384-well black plate (Corning Costar, Acton, Mass.) in 20 μL final volume of PBS plus 0.1% BSA. For example, excitation and emission conditions for TR-FRET assay 1 and 2 were 345 nm and 665 nm, respectively. All TR-FRET measurements were taken using an Envision plate reader (Perkin Elmer) using the TR-FRET mode.
Binding between IL-13 and IL-13Rα¹ was analyzed using Eu-IL-13 (Eu=Europium chelate, FRET donor) and Cy5-IL-13Rα1 (Cy5=Cyanine dye, FRET acceptor) (schematic shown in FIG. 3) described in Example 5. Affinity measurements were performed by adding various concentrations of Cy5-IL-13Rα1 in the presence of 10 nM Eu-IL-13 with and without 500 nM IL-4R.

Experiment [14] has as its target T1, Eu-IL-13 (europium chelate labeled …). Description: TR-FRET assay 1, competition with 10 nM Cy5-IL-13Rα1 for 10 nM Eu-IL-13, no IL-4R. Here is the method:
as §1
(§2) Assays were performed as described in Example 5. Competition experiments were performed by adding various concentrations of unlabeled IL-13, IL-13R110Q, or IL-13Rα1 to the Eu-IL-13 (10 nM)/Cy5-IL-13Rα1 (10 nM) binary complex with or without IL-4R (500 nM).
(§3) To confirm the dissociation constant of Cy5-IL-13Rα1, a competition experiment was performed using unlabeled IL-13Rα1.

For experiment [15], the target named is T2, Eu-IL-13 plus IL-4R (500 nM) in solution (human, UniProt P35225 35-146; P24394 26-232, limits assumed, europium chelate label; site not stated).
T2 construct: The partners of IL-13Rα1 in the ternary format of TR-FRET assay 1
T2 sequence (P35225 other isoform, or with tags, fused parts or gaps limits assumed, form in doubt, chain 1 of 2): as the sequence (P35225 35-146, one chain of several) above, with Q110R counted along it
T2 sequence (P24394 26-232 limits assumed, form in doubt, chain 2 of 2): as the sequence (P24394 26-232) above
Description: TR-FRET assay 1, competition with 10 nM Cy5-IL-13Rα1 for 10 nM Eu-IL-13, with 500 nM IL-4R. The procedure: as §1, §2, §3

Like-named read-outs stand apart in the source and are kept apart here.

Sequence of Cy5-IL-13Rα1 plus IL-4R (500 nM) in solution (human) (P24394 26-232): as above

The molecule “IL-13R110Q (from UniProt P35225 35-146) (ligand)” showed a t½ (decay of binding) in experiment [1] of 50 s. For the same molecule, the Kd in experiment [2] was 0.53 nM; in experiment [5] it was 14.5 nM; in experiment [7], 6.7 nM; in experiment [8], 8.93 nM; in experiment [10], 0.3 nM. In addition, the koff in [2] came out at 0.002 s⁻¹; in [5], 0.018 s⁻¹; in [8], 0.015 s⁻¹. Further, the half-inhibitory concentration (IC50) stood at 27 nM in [3] and 12 nM in experiment [9]. Besides, in experiment [4], the fold lower Kd than to IL-13Rα1 alone came out at 17 fold. Also, the kon in experiment [5] turned out to be 1.24e+06 M⁻¹ s⁻¹; in [6], 3.77e+06 M⁻¹ s⁻¹; in experiment [8], 1.68e+06 M⁻¹ s⁻¹.

In [11], “soluble form of carrier-free human IL-4Rα monomer (R&D Systems) (from UniProt P24394 26-232) (receptor)” displayed a Kd of 115 nM, a koff of 0.0051 s⁻¹ and a kon of 44000 M⁻¹ s⁻¹. The molecule further returned a koff in experiment [12] of 0.005 s⁻¹.

B1: Cy5-IL-13Rα1 (Cy5 labeled IL-13Rα1) (receptor, human, UniProt P78552 22-343, looked up)
chain: GGGGAAPTETQPPVTNLSVSVENLCTVIWTWNPPEGASSNCSLWYFSHFGDKQDKKIAPETRRSIEVPLNERICLQVGSQCSTNESEKPSILVEKCISPPEGDPESAVTELQCIWHNLSYMKCSWLPGRNTSPDTNYTLYYWHRSLEKIHQCENIFREGQYFGCSFDLTKVKDSSFEQHSVQIMVKDNAGKIKPSFNIVPLTSRVKPDPPHIKNLSFHNDDLYVQWENPQNFISRCLFYEVEVNNSQTETHNVFYVQEAKCENPEFERNVENTSCFMVPGVLPDTLNTVRIRVKTNKLCYEDDKLWSNWSQEMSIGKKRNST
modifications: Cy5 label, directly labeled; site not stated
notes: extracellular domain; also called IL-13R-Cys5; Cy5-IL-13RI1
B1 returned an EC50 in [13] of 10 nM.

B2: IL-13Rα1 monomer (IL-13Rα1 extracellular domain) (receptor, human, UniProt P78552 22-343, looked up)
chain: B1 chain
notes: extracellular domain; Expressed and purified as in Yang et al. 2006; also called IL-13RI1; IL-13R1
Take B2: the IC50 in experiment [14] came to 20 nM; in [15], 11 nM.

(Values after US20090156421A1 (published 2009).)
